According to the supplement of paper PMC10724198:
± gives the standard deviation of the averaged measurements.

Test system: Saccharomyces cerevisiae
Assay: protein stability index of tFT-peptide fusion (C-terminal peptide) (PSI (0-1 scale)); higher = more stable (slower turnover)
Conditions: genetic background: wild type; temperature: 30 C
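Also: PSI is a weighted mean of sequencing reads over stability bins, variants kept only with over 10 reads, mCherry proximal and sfGFP distal, peptide attached via GGGS linker.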

| Sequence | protein stability index |
| --- | --- |
| VWGAGGGVWGLG | 0.793 ± 0.0085 |
| RRGAVVLVSPAL | 0.677 ± 0.021 |
| GAGAHVPCSGRQ | 0.6754 ± 0.0034 |
| ALEFNGLVAGRL | 0.727 ± 0.081 |
| LTYVSGIASVYG | 0.532 ± 0.019 |
| LGQWGGGLSGSV | 0.685 ± 0.033 |
| HLPRRAAILNEF | 0.709 ± 0.049 |
| AGGGCALGDGWS | 0.649 ± 0.021 |
| KKKQKKVSNKQT | 0.699 ± 0.044 |
| GACDGEGGSRVR | 0.611 ± 0.0075 |
| YSGFYIRRGLTW | 0.689 ± 0.011 |
| WKQEKYTFKKRT | 0.707 ± 0.032 |
| CTMEDLGNCEGI | 0.691 ± 0.0082 |
| ARLPSSRLDLSP | 0.686 ± 0.056 |
| DNSIWPSALCAP | 0.703 ± 0.047 |
| ASSHDNPEEVST | 0.6298 ± 0.002 |
| SLGGGGGLAWWL | 0.795 ± 0.26 |
| LLPPPPPPPSTP | 0.772 ± 0.0067 |
| VCPPPIGYHSYQ | 0.6674 ± 0.0019 |
| ASRKRKVAQESR | 0.688 ± 0.03 |
| PSRSFLPTHCSL | 0.666 ± 0.017 |
| PPLLPLPPPPSP | 0.625 ± 0.067 |
| GVGAPGARGVWG | 0.748 ± 0.048 |
| DDSSLLMLNCLE | 0.71964 ± 0.00048 |
| LSHAHLSPTSSA | 0.708 ± 0.088 |
| NKKKKTAIPPKR | 0.672 ± 0.021 |

| Sequence | protein stability index |
| --- | --- |
| RPRLSGGLGGVG | 0.644 ± 0.051 |
| VFLSCPCLFFWV | 0.56 ± 0.022 |
| QLCRPRIFTNRG | 0.662 ± 0.034 |
| FVYHGLVGKRMV | 0.666 ± 0.051 |
| APARTTPRLPFA | 0.724 ± 0.069 |
| QGGLCGVYGWSL | 0.68 ± 0.042 |
| TKRKEKHKIIGK | 0.705 ± 0.046 |
| PWQSSPFTPALT | 0.649 ± 0.057 |
| RPLSSSFRTVPS | 0.721 ± 0.037 |
| SQGDVLLFMFLW | 0.548 ± 0.033 |
| SRSAQAGFKVFN | 0.712 ± 0.2 |
| AHLPHSSFSWRP | 0.707 ± 0.05 |
| FVHSTLPPSFSI | 0.735 ± 0.019 |
| DSHRRPGSPPPL | 0.688 ± 0.11 |
| IEETKDYTRKRQ | 0.6484 ± 0.0034 |
| IGGLSLGESIGG | 0.689 ± 0.02 |
| LPPSPEPLPPRR | 0.717 ± 0.059 |
| AGSSSLRGRLRG | 0.69 ± 0.068 |
| PFSLTTLFSPLL | 0.691 ± 0.031 |
| FFAGASRFSSWS | 0.752 ± 0.029 |
| KRKEKKKEKRRK | 0.714 ± 0.022 |
| PKHQPSLLPNHH | 0.615 ± 0.026 |
| PERPPVARATRP | 0.718 ± 0.049 |
| PPVRLLPCVCHF | 0.708 ± 0.049 |
| PLPRPPPPSCPP | 0.654 ± 0.076 |
| PRPLPVCTDVHD | 0.642 ± 0.019 |

| Sequence | protein stability index |
| --- | --- |
| TPPFPPSPFLTL | 0.783 ± 0.039 |
| HVRSPLRRVEKF | 0.6988 ± 0.006 |
| GREGGEQRKEGK | 0.692 ± 0.029 |
| PLPPPPAPPLPP | 0.647 ± 0.024 |
| GVGAWGGMCGVV | 0.724 ± 0.0082 |
| KRCHPVYVRGGG | 0.568 ± 0.013 |
| RREGGRQRGGSG | 0.67 ± 0.063 |
| PPPGPPAVANRL | 0.701 ± 0.072 |
| ITGGEKNKEESG | 0.698 ± 0.019 |
| SPPLRPLSDLTP | 0.692 ± 0.085 |
| SSPLPHPSFSPS | 0.689 ± 0.017 |
| EGGGWGVGSEVG | 0.694 ± 0.035 |
| LPHTVITVPDPQ | 0.628 ± 0.065 |
| PRAPRPHPLTNF | 0.673 ± 0.051 |
| PPTSPGPGSLYS | 0.693 ± 0.036 |
| SGWSVGVMGESG | 0.627 ± 0.092 |
| GSVRGFGGGGEE | 0.652 ± 0.049 |
| KQTEKEPKKGES | 0.7123 ± 0.0028 |
| DFVKVVPNVVDL | 0.659 ± 0.078 |
| DVGGDGDCVVSS | 0.661 ± 0.0024 |
| GAGGGGNLGWLR | 0.6788 ± 0.0063 |
| ALRLLRFPSPPP | 0.628 ± 0.049 |
| LLQFRATFPTTV | 0.721 ± 0.036 |
| PNAPSLSPPSLF | 0.624 ± 0.066 |
| ADPNDSPPPASP | 0.617 ± 0.026 |
| SRSRPSRTLPLD | 0.695 ± 0.022 |

| Sequence | protein stability index |
| --- | --- |
| SFSACGEPVPPG | 0.661 ± 0.0077 |
| RSGQEKEKWEER | 0.701 ± 0.022 |
| ALMITIMNNREF | 0.649 ± 0.021 |
| GRGGGVGLVVGG | 0.683 ± 0.019 |
| TLHEDVMFYSRM | 0.6843 ± 0.0067 |
| TILAGSSRGTLR | 0.659 ± 0.061 |
| SAERLKIVNDRI | 0.753 ± 0.055 |
| GPSIYGFEESFS | 0.691 ± 0.0093 |
| IKSQRGIHLELR | 0.634 ± 0.028 |
| SPPHPPPLLLPP | 0.655 ± 0.066 |
| LLPPPPPPPFSD | 0.653 ± 0.079 |
| IPIPLLPASSPP | 0.6877 ± 0.0063 |
| GYVLVLGVKGGL | 0.648 ± 0.032 |
| SKGLPADSQQPF | 0.729 ± 0.054 |
| SPLPPRSPPRPA | 0.699 ± 0.01 |
| QAVVGSYRELGE | 0.709 ± 0.038 |
| GCRRGFRKGQDC | 0.645 ± 0.023 |
| KEQGEGKEKTDK | 0.682 ± 0.063 |
| WVGRGGAVENKV | 0.718 ± 0.03 |
| ESDLNDLGQNLN | 0.674 ± 0.058 |
| DQESTRLRWGTS | 0.66 ± 0.041 |
| CPSFTSVLPSVP | 0.678 ± 0.036 |
| SFGSVFGGRWCV | 0.672 ± 0.035 |
